Each structure is given as a SMILES string. Read-outs that look alike come from different tables or passages of the source. Starred links: 1 amine or outer side, 2 acyl side, 3 side chain; linkers in the order of their positions; H or OH if unused. Non-standard residues stand in square brackets, D forms with d. Residues, ends and D or L forms follow the SMILES beside them. *: point of attachment. X1 = Cc1cc(F)cc(-c2cnc(NCCNC(=O)CCOCCC(=O)*)c(-c3nc4ccc(Cl)cc4[nH]3)c2N2CCC(N)CC2)c1; X3 = Cc1cc(F)cc(-c2cnc(NCCN*)c(-c3nc4ccc(Cl)cc4[nH]3)c2N2CCC(N)CC2)c1; Dolaproine = CO[C@@H]([C@@H]1CCCN1)[C@@H](C)C(=O)O; Dil = CC[C@H](C)[C@H](NC)[C@@H](CC(=O)O)OC; PABC = O=C(OCc1ccc(N[*:1])cc1)[*:2]; Glutaryl = O=C(CCCC(=O)[*:2])[*:1]; X2 = C[C@@H](N*)[C@@H](O)c1ccccc1; Cit = NC(=O)NCCC[C@H](N)C(=O)O; NMeV = CN[C@H](C(=O)O)C(C)C; Sar = CNCC(=O)O

One series addresses T1, SST2 (Homo sapiens, UniProt P30874).
T1 construct: host or cells: PathHunter CHO-K1 SST2 cells
In words: PathHunter CHO-K1 SST2 internalization assay. The note with it: PathHunter CHO-K1 SST2, 90 min; read-out: Internalization EC50. It is filed as cell-based. In outline:
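PathHunter CHO-K1 SST2 cells, seeded and grown 48 h, were exposed to 11-point 1:3 dilutions of SMDC (top final 10 uM) for 90 min at 37 C, 5% CO2. Beta-Glo luminescence was read after 60 min at room temperature. Background-corrected duplicate means were fitted by four-parameter nonlinear regression to give IC50.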

Series [1] in a line: H524 tumor biodistribution model: tumor and plasma levels of SMDC and MMAE by LC/MS-MS. It is filed as in vivo, female Athymic nude mice. The note with it: H524 tumor bearing nude mice. The procedure: In this example, 5 million H524 (Small Cell Lung Cancer) cells in 1:1 Matrigel: cold Media (RPMI1640) were injected into the subcutaneous (SQ) flank of female Athymic nude mice. Tumor volumes and body weights were measured twice a week. The tumors were allowed to grow until they reached 250-500 mm^3 in size before animals were randomized into groups (n=3/time point). Animals were injected intravenously with a SMDC of the present invention at a single dose of 500 nmol/kg. […] BLQ: Below Limit of Quantitation.

In series [2] the target is T2, human somatostatin receptor subtype 2 (Homo sapiens, UniProt P30874).
T2 construct: expressed in transfected cells
T2 sequence (P30874 whole entry): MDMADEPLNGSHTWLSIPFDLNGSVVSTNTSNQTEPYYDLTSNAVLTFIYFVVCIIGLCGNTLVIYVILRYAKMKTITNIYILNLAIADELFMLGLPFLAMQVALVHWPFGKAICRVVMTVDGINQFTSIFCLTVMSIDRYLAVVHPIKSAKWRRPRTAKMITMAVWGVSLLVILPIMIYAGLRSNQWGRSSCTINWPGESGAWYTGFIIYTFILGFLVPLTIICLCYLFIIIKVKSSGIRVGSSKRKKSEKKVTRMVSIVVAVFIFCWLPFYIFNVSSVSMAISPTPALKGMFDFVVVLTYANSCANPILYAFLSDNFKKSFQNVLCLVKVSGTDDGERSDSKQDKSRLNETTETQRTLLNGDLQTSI
In words: Functional cAMP assay for SSTR2 agonists (HTRF) in CHO-K1 cells. Format: cell-based. The following applies: CHO-K1 cells stably expressing human SST2, 20 min; read-out: hSST2 cAMP Avg EC50. In outline:
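CHO-K1 cells stably expressing receptor, plated 4 days before assay, treated 20 min at 37° C. with compound (typically 0-10,000 nM final) plus IBMX and 1.6 μM NKH477 to raise cAMP. HTRF read, 665/620 nm ratio; cAMP from standard curve, EC50 fitted.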
For orientation: Cyclic AMP is a second messenger, typically raised through Gs and lowered through Gi signalling.

Series [3] concerns NCI-H524 (ATCC) human small cell lung cancer cells. Format: cell-based. Put shortly: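 NCI-H524 cells (5,000/well) were exposed 24 h after plating to SMDC for 2 h, 11-point two-fold series from 1 uM. After washout they grew a further 70 h. Proliferation was read by CellTiter-Glo luminescence, % inhibition taken vs untreated control, and IC50 fitted by four-parameter nonlinear regression.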

Setting [4] is: MMAE level 4 h after 500 nmol/kg IV of the conjugate.
The mark [5] stands for this setting: MMAE level 24 h after 500 nmol/kg IV of the conjugate.
Where [6] appears, read: MMAE level 72 h after 500 nmol/kg IV of the conjugate.
The mark [7] stands for this setting: MMAE level 168 h after 500 nmol/kg IV of the conjugate.
The mark [8] stands for this setting: MMAE level 1 h after 500 nmol/kg IV of the conjugate.

T1 sequence (P30874 whole entry): as above

The term EC50 denotes the concentration at which the effect is half-maximal. In the case of `CC[C@H](C)[C@@H]([C@@H](CC(=O)N1CCC[C@H]1[C@H](OC)[C@@H](C)C(=O)N[C@H](C)[C@@H](O)c1ccccc1)OC)N(C)C(=O)[C@@H](NC(=O)[C@H](C(C)C)N(C)C(=O)OCc1ccc(NC(=O)[C@H](CCCNC(N)=O)NC(=O)[C@@H](NC(=O)CCOCCC(=O)NCCNc2ncc(-c3cc(C)cc(F)c3)c(N3CCC(N)CC3)c2-c2nc3ccc(Cl)cc3[nH]2)C(C)C)c(O[C@@H]2O[C@H](C(=O)O)[C@@H](O)[C@H](O)[C@H]2O)c1)C(C)C` [Compound 61], the EC50 on SST2 is 12.7 nM; in series [2], 0.11 nM; in series [3] (2 h), 33.2 nM. The “Conjugate Plasma (nM)” value in series [1] (72 h after 500 nmol/kg IV) and in series [1] (168 h after 500 nmol/kg IV) was “BLQ” throughout. Moreover, the “Conjugate Tumor (nM)” value in series [1] (72 h after 500 nmol/kg IV) and in series [1] (168 h after 500 nmol/kg IV) was “BLQ” in each case. In addition, the “MMAE Plasma” value in series [1] (setting [4]) is listed as 0.754 nM. Moreover, the “MMAE Tumor” value in series [1] (setting [4]) is on record as 75.0 nM; in series [1] (setting [5]) it was 320 nM; in series [1] (setting [6]), 267 nM; in series [1] (setting [7]) it was 97.8 nM. The “MMAE Plasma (nM)” value in series [1] (setting [6]) and in series [1] (setting [7]) was “BLQ” each time. Also, the level at time molar at 4 h in series [1] (female, Athymic nude, mouse, plasma, 4 h after 500 nmol/kg IV, read-out: Conjugate Plasma) was found to be 1100 nM; in series [1] (female, Athymic nude, mouse, 4 h after 500 nmol/kg IV, read-out: Conjugate Tumor) it was 181 nM. The level at time molar at 24 h is 56.5 nM in series [1] (female, Athymic nude, mouse, plasma, 24 h after 500 nmol/kg IV, read-out: Conjugate Plasma) and 37 nM in series [1] (female, Athymic nude, mouse, 24 h after 500 nmol/kg IV, read-out: Conjugate Tumor).
On to `CC[C@H](C)[C@@H]([C@@H](CC(=O)N1CCC[C@H]1[C@H](OC)[C@@H](C)C(=O)N[C@H](C)[C@@H](O)c1ccccc1)OC)N(C)C(=O)[C@@H](NC(=O)[C@H](C(C)C)N(C)C(=O)OCc1ccc(NC(=O)[C@H](C)NC(=O)[C@@H](NC(=O)CCOCCC(=O)NCCNc2ncc(-c3cc(C)cc(F)c3)c(N3CCC(N)CC3)c2-c2nc3ccc(Cl)cc3[nH]2)C(C)C)c(O[C@@H]2O[C@H](C(=O)O)[C@@H](O)[C@H](O)[C@H]2O)c1)C(C)C` [Compound 68], for which the level at time molar at 24 h in series [1] (1 h after 500 nmol/kg IV, read-out: Conjugate Plasma) is given as 1388 nM; in series [1] (1 h after 500 nmol/kg IV, read-out: Conjugate Tumor) it was 212 nM; in series [1] (4 h after 500 nmol/kg IV, read-out: Conjugate Plasma) it was 446 nM; in series [1] (4 h after 500 nmol/kg IV, read-out: Conjugate Tumor), 91.3 nM; in series [1] (24 h after 500 nmol/kg IV, read-out: Conjugate Plasma), 36.9 nM; in series [1] (24 h after 500 nmol/kg IV, read-out: Conjugate Tumor) it was 15.5 nM. Further, the level at time molar at 24 h in series [1] (72 h after 500 nmol/kg IV, read-out: Conjugate Plasma) stood at 0.68 nM. Further, the “Conjugate Tumor (nM)” value in series [1] (72 h after 500 nmol/kg IV) was “BLQ”. Also, the “MMAE Plasma” value in series [1] (setting [8]) is 8.82 nM; in series [1] (setting [4]) it was 1.94 nM; in series [1] (setting [5]) it was 0.416 nM. For the same molecule, the “MMAE Tumor” value in series [1] (setting [8]) worked out at 17.5 nM; in series [1] (setting [4]), 197 nM; in series [1] (setting [5]), 299 nM; in series [1] (setting [6]), 231 nM. For the same molecule, the “MMAE Plasma (nM)” value in series [1] (setting [6]) is “BLQ”. In addition, the half-maximal effective concentration (EC50) in series [3] (2 h treatment, washout, additional 70 h, read-out: H524 EC50) was found to be 11.2 nM.
For `CC[C@H](C)[C@@H]([C@@H](CC(=O)N1CCC[C@H]1[C@H](OC)[C@@H](C)C(=O)N[C@H](C)[C@@H](O)c1ccccc1)OC)N(C)C(=O)[C@@H](NC(=O)[C@H](C(C)C)N(C)C(=O)OCc1ccc(O[C@@H]2O[C@H](C(=O)O)[C@@H](O)[C@H](O)[C@H]2O)c(NC(=O)[C@H](C)NC(=O)[C@@H](NC(=O)CCOCCC(=O)NCCNc2ncc(-c3cc(C)cc(F)c3)c(N3CCC(N)CC3)c2-c2nc3ccc(Cl)cc3[nH]2)C(C)C)c1)C(C)C` [Compound 148], the half-maximal effective concentration (EC50) was found to be 4.5 nM on SST2, 0.086 nM in series [2] and 7.9 nM in series [3] (2 h).
For `CC[C@H](C)[C@@H]([C@@H](CC(=O)N1CCC[C@H]1[C@H](OC)[C@@H](C)C(=O)N[C@H](C)[C@@H](O)c1ccccc1)OC)N(C)C(=O)[C@@H](NC(=O)[C@H](C(C)C)N(C)C(=O)OCc1ccc(NC(=O)[C@H](CCCNC(N)=O)NC(=O)[C@@H](NC(=O)[C@H](CC(=O)O)NC(=O)[C@H](CC(=O)O)NC(=O)[C@H](CC(=O)O)NC(=O)CCOCCC(=O)NCCNc2ncc(-c3cc(C)cc(F)c3)c(N3CCC(N)CC3)c2-c2nc3ccc(Cl)cc3[nH]2)C(C)C)cc1)C(C)C` [Compound 108] (X1-DDDV[Cit][PABC][NMeV]V[Dil][Dolaproine]-X2), in that order: 53 nM, 1.9 nM and 3300 nM.
Take `CC[C@H](C)[C@@H]([C@@H](CC(=O)N1CCC[C@H]1[C@H](OC)[C@@H](C)C(=O)N[C@H](C)[C@@H](O)c1ccccc1)OC)N(C)C(=O)[C@@H](NC(=O)[C@H](C(C)C)N(C)C(=O)OCc1ccc(NC(=O)[C@H](CCCNC(N)=O)NC(=O)[C@@H](NC(=O)CCCC(=O)N(C)CC(=O)N(C)CC(=O)N(C)CC(=O)NCCNc2ncc(-c3cc(C)cc(F)c3)c(N3CCC(N)CC3)c2-c2nc3ccc(Cl)cc3[nH]2)C(C)C)cc1)C(C)C` [Compound 96] ({X3-Sar-Sar-Sar-Glutaryl}-V[Cit][PABC][NMeV]V[Dil][Dolaproine]-X2): the EC50 on SST2 is 4.9 nM; in series [2], 0.47 nM; in series [3] (2 h) it was 21 nM.
For `CC[C@H](C)[C@@H]([C@@H](CC(=O)N1CCC[C@H]1[C@H](OC)[C@@H](C)C(=O)N[C@H](C)[C@@H](O)c1ccccc1)OC)N(C)C(=O)[C@@H](NC(=O)[C@H](C(C)C)N(C)C(=O)OCc1ccc(NC(=O)[C@H](C)NC(=O)[C@@H](NC(=O)[C@H](CCC(N)=O)NC(=O)CCCCCC(=O)NCCNc2ncc(-c3cc(C)cc(F)c3)c(N3CCC(N)CC3)c2-c2nc3ccc(Cl)cc3[nH]2)C(C)C)cc1C(=O)NCCN)C(C)C` [Compound 121], in that order: 3 nM, 0.45 nM and 0.62 nM.
As to `CC[C@H](C)[C@@H]([C@@H](CC(=O)N1CCC[C@H]1[C@H](OC)[C@@H](C)C(=O)N[C@H](C)[C@@H](O)c1ccccc1)OC)N(C)C(=O)[C@@H](NC(=O)[C@H](C(C)C)N(C)C(=O)OCc1ccc(NC(=O)[C@H](C)NC(=O)[C@@H](NC(=O)[C@H](CCC(N)=O)NC(=O)CCOCCC(=O)NCCNc2ncc(-c3cc(C)cc(F)c3)c(N3CCC(N)CC3)c2-c2nc3ccc(Cl)cc3[nH]2)C(C)C)c(O[C@@H]2O[C@H](C(=O)O)[C@@H](O)[C@H](O)[C@H]2O)c1)C(C)C` [Compound 146], the EC50 on SST2 stood at 2.1 nM; in series [2], 0.072 nM; in series [3] (2 h) it was 4.8 nM.
As to `CC[C@H](C)[C@@H]([C@@H](CC(=O)N1CCC[C@H]1[C@H](OC)[C@@H](C)C(=O)N[C@H](C)[C@@H](O)c1ccccc1)OC)N(C)C(=O)[C@@H](NC(=O)[C@H](C(C)C)N(C)C(=O)OCc1ccc(NC(=O)[C@H](CCCNC(N)=O)NC(=O)[C@@H](NC(=O)[C@H](CCC(=O)O)NC(=O)CCOCCC(=O)NCCNc2ncc(-c3cc(C)cc(F)c3)c(N3CCC(N)CC3)c2-c2nc3ccc(Cl)cc3[nH]2)C(C)C)cc1C(=O)NC)C(C)C` [Compound 51], the EC50 on SST2 was 6.3 nM; in series [2] it was 0.22 nM; in series [3] (2 h), 130 nM.

Source of the values: patent publication US12134610B2, “Somatostatin subtype-2 receptor (SST2R) targeted therapeutics and uses thereof” (priority 2022, dated 2024).
